These results are taken from patent CN114437226A (HANGZHOU CYANINE INGENKANG BIOTECHNOLOGY LTD COMPANY, dated 2022).

The test concerns the target T1, 人白介素22(IL22)(Sino Biological) (human, UniProt Q9GZX6 34-179).
T1 sequence (looked up): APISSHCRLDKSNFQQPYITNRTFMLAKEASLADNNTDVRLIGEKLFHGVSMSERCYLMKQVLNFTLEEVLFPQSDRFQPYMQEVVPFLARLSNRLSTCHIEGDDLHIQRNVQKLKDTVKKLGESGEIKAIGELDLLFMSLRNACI
Put plainly: ELISA, IL22-coated plate (Fig 11). In general terms: An ELISA detects its analyte on a solid surface through an enzyme-linked reagent.

Where a chain is given by its changes, count along the chain named. Names may count otherwise.

B1: FezHλ-ClaH(K218C)κ(F118C) (bispecific antibody, human IgG1, lambda)
heavy 1: QVQLVQSGAEVKKPGASVKVSCKASGYTFTNYYMHWVRQAPGQGLEWVGWINPYTGSAFYAQKFRGRVTMTRDTSISTAYMELSRLRSDDTAVYYCAREPEKFDSDDSDVWGRGTLVTVSSASTKGPSVFPLAPSSKSTSGGTAALGCLVKDYFPEPVTVSWNSGALTSGVHTFPAVLQSSGLYSLSSVVTVPSSSLGTQTYICNVNHKPSNTKVDKKVEPKSCDKTHTCPPCPAPELLGGPSVFLFPPKPKDTLMISRTPEVTCVVVDVSHEDPEVKFNWYVDGVEVHNAKTKPREEQYNSTYRVVSVLTVLHQDWLNGKEYKCKVSNKALPAPIEKTISKAKGQPREPQVYTLPPSREEMTKNQVSLSCAVKGFYPSDIAVEWESNGQPENNYKTTPPVLDSDGSFFLVSKLTVDKSRWQQGNVFSCSVMHEALHNRFTQKSLSLSPGHHHHHH
light 1: QAVLTQPPSVSGAPGQRVTISCTGSSSNIGAGYGVHWYQQLPGTAPKLLIYGDSNRPSGVPDRFSGSKSGTSASLAITGLQAEDEADYYCQSYDNSLSGYVFGGGTQLTVLGQPKAAPSVTLFPPSSEELQANKATLVCLISDFYPGAVTVAWKADSSPVKAGVETTTPSKQSNNKYAASSYLSLTPEQWKSHRSYSCQVTHEGSTVEKTVAPTECS
heavy 2: not shown
light 2: AIQMTQSPSSLSASVGDRVTITCQASQSINNELSWYQQKPGKAPKLLIYRASTLASGVPSRFSGSGSGTDFTLTISSLQPDDFATYYCQQGYSLRNIDNAFGGGTKVEIKRTVAAPSVFICPPSDEQLKSGTASVVCLLNNFYPREAKVQWKVDNALQSGNSQESVTEQDSKDSTYSLSSTLTLSKADYEKHKVYACEVTHQGLSSPVTKSFNRGEV
notes: also called K218C/F118C
Consider B1, for which the binding result was “binds”.

B2: FezHλ-ClaH(S132C)κ(F116C) (bispecific antibody, human IgG1, lambda)
heavy 1: B1 heavy 1
light 1: B1 light 1
heavy 2: not shown
light 2: B1 light 2 with F119C, C121F
notes: also called S132C/F116C
With B2, the binding result is “binds”.
